These results are taken from PMC12346298, “Structures of MmpL complexes reveal the assembly and mechanism of this family of transporters” (Science Advances, 2025).

In experiment [1] the target is mycobacterial membrane protein large 5 (MmpL5) transporter, M. smegmatis (M. smegmatis) (UniProt A0QS80). Put plainly: cryo-EM structure; particle class 2 (tripartite trimeric AcpM-MmpL5-MmpS5 complex) from the same LMNG-solubilized crude membrane sample; Build and Retrieve processing; 2.81 Å.
Experiment [2] shares this target. Put plainly: cryo-EM structure; particle class 3 (dipartite trimeric AcpM-MmpL5 complex) from the same LMNG-solubilized crude membrane sample; Build and Retrieve processing; 3.37 Å.
Experiment [3] has as its target T1, mycobacterial membrane protein large 5 (MmpL5) transporter, M. smegmatis (M. smegmatis, UniProt A0QS80 1-967).
T1 construct: MmpL5 of Mycobacterium smegmatis, gene MSMEG_1382 cloned into pBUN250; 12 TM helices, periplasmic subdomains PD1-PD3 (PD3 = residues 499-684); Seen as a monomer (in 2D arrays) and as a homotrimer in different particle classes of one sample; Residues 493-702 are not modelled in 9MX0, residues 499-655 not in 9MW0; also called MSMEG_1382; source: M. smegmatis MC2-155, coexpressed with MmpS5 from …
T1 sequence (looked up): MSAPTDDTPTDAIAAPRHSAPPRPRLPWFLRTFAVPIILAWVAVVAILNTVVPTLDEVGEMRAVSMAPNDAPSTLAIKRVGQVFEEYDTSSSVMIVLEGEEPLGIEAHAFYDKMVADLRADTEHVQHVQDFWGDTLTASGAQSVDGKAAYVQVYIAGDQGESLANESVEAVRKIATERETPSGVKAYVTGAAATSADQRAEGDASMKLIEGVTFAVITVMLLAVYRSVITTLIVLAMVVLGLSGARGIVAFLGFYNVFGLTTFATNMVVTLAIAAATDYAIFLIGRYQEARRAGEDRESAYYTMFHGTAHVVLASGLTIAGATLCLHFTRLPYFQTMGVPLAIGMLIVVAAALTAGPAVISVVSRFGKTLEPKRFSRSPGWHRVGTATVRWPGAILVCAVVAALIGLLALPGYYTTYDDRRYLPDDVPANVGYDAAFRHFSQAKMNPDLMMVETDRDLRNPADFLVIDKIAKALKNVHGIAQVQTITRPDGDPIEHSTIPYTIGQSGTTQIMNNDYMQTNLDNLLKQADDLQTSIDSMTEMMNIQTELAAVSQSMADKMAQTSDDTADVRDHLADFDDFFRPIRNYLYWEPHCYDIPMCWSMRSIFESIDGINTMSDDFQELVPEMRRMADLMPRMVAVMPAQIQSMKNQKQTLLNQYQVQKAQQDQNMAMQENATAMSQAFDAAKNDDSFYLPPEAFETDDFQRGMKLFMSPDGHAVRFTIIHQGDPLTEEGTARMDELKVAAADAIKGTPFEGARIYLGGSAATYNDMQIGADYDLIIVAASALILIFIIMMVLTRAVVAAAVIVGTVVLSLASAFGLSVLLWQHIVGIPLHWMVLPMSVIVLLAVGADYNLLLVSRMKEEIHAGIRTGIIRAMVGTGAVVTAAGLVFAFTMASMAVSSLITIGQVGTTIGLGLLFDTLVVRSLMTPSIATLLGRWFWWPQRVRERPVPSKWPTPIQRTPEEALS
Put plainly: cryo-EM structure; particle class 1 (2D arrays of monomeric AcpM-MmpL5 units) from LMNG-solubilized crude M. smegmatis membranes enriched by sucrose cushion; Build and Retrieve processing; 3.35 Å. Conditions: partners not purified.

Experiment [4] concerns the target T1, mycobacterial membrane protein large 5 …. Description: cryo-EM structure; particle class 2 (tripartite trimeric AcpM-MmpL5-MmpS5 complex) from the same LMNG-solubilized crude membrane sample; Build and Retrieve processing; 2.81 Å. Conditions: partners not purified.

“MmpS5 adaptor protein, M. smegmatis (natural protein)” registered a stoichiometry N (MmpS5:MmpL5 (3:3)) in experiment [1] of 1.
For the molecule “mycobacterial membrane protein large 5 (MmpL5) transporter, M. smegmatis (from UniProt A0QS80 1-967) (natural protein)”, the stoichiometry N in experiment [2] and in experiment [1] was 3 in each case.

B1: meromycolate extension acyl carrier protein M (AcpM), M. smegmatis (natural protein, UniProt A0R0B3 1-99, looked up)
chain: MAATQEEIIAGLAEIIEEVTGIEPSEVTPEKSFVDDLDIDSLSMVEIAVQTEDKYGVKIPDEDLAGLRTVGDVVAYIQKLEEENPEAAAALREKFAADQ
notes: AcpM, cytosolic meromycolate extension acyl carrier protein of Mycobacterium smegmatis, not overexpressed; identified in the cryo-EM maps and by proteomics; four-helix bundle, 82 C-alpha atoms compared; Came with MmpL5 from the host cells; source: endogenous, M. smegmatis MC2-155; detergent-solubilized (LMNG) crude membranes, enriched by sucrose cushion centrifugation
For B1, the “stoichiometry N” value in experiment [3] was 1 AcpM:MmpL5 (1:1); in experiment [4], 1 AcpM:MmpL5 (3:3).
